# Experimental data taken from PMC9905677.
# What was measured:
# [1] = biological target: soluble form of human FcγRIIIb (NA2 form) composed of the extracellular domains (human) (UniProt O75015); assay: NMR titration; 1H-15N HSQC peak intensity attenuation of the 15N-labeled protein (rituximab-Fc 120 μM, rituximab-Fab 240 μM, sFcγRIIIb 120 μM) on adding serum polyclonal IgG 120 μM, its Fab 240 μM or HSA 600 μM; 5 mM sodium phosphate, 50 mM NaCl, pH 7.4, 37°C
# rituximab-Fab (human) = assay: as above
# [2] = biological target: extracellular region of human FcγRIIIa (158V allele), bis-glycosylated (human) (UniProt P08637)
# Chain of UniProt O75015 (O75015 17-200): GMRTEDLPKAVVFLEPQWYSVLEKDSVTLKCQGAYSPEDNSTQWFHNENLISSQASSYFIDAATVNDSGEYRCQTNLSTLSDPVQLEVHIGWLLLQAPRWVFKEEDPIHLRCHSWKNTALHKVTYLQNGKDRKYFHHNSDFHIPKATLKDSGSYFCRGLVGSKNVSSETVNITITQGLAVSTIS
Substance,average level of HSQC peak intensity attenuation (Io-Ip)/Io [1],average level of HSQC peak intensity attenuation (Io-Ip)/Io (rituximab-Fab (human)),"EC50 of the ADCC reporter assay (Jurkat/FcγRIIIa/NFAT-Luc effector cells, luciferase) [2]"
human serum albumin (from UniProt P02768 25-609) (natural protein),0.41,0.6,
rituximab (antibody),,,0.02 µg/mL
